# Patent US20230212319A1, “NOVEL ANTIGEN BINDING DOMAINS AND SYNTHETIC ANTIGEN RECEPTORS INCORPORATING THE SAME” (University of Southern California, priority 2020, published 2023)
# B1: 22106 (protein)
# chain: MALPVTALLLPLALLLHAARPDIQMTQSPSSLSASVGDRVTITCKASDHINNWLAWYQQKPGQAPKLLIYGATTLETGVPSRFSGSGSGTDYTLTISSLQPEDFATYYCQQSWNTPWTFGQGTKLEIKRLEDLKNVFPPEVAVFEPSKAEIAHTQKATLVCLATGFYPDHVELSWWVNGKEVHSGVCTDPQPLKEQPALNDSRYCLSSRLRVSATFWQNPRNHFRCQVQFYGLSENDEWTQDRAKPVTQIVSAEAWGRADCGITSASYHQGVLSATILYEILLGKATLYAVLVSALVLMAMVKRKDSRGRAKRSGSGATNFSLLKQAGDVEENPGPTSATMDWIWRILFLVGAATGAHSGPQVQLQESGGGLAQAGGSLRLSCAASGRTFSMGWFRQAPGKEREFVAAITYSGGSPYYASSVRGRFTISRDNAKNTVYLQMNSLKPEDTAVYYCAANPTYGSDWNAENWGQGTQVTVSSGSGGGGSGGGGSGGGGSFEQVQLQQPGAELVKPGASVKMSCKASGYAFSSYWINWMKQKPGQGLEWIGQIYPGDGDTNYNGKFKGRATLTADTSSSTAYMQLSSLTSEDSAVYFCARSITTVVGCAMDYWGQGTSVTVSSTRIQNPDPAVYQLRDSKSSDKSVCLFTDFDSQTNVSQSKDSDVYITDKCVLDMRSMDFKSNSAVAWSNKSDFACANAFNNSIIPEDTFFPSSDVPCDVKLVEKSFETDTNLNFQNLSVIGFRILLLKVAGFNLLMTLRLWSSRAKRSGSGVKQTLNFDLLKLAGDVESNPGPSRGHMTEYKPTVRLATRDDVPRAVRTLAAAFADYPATRHTVDPDRHIERVTELQELFLTRVGLDIGKVWVADDGAAVAVWTTPESVEAGAVFAEIGPRMAELSGSRLAAQQQMEGLLAPHRPKEPAWFLATVGVSPDHQGKGLGSAVVLPGVEAAERAGVPAFLETSAPRNLPFYERLGFTVTADVEVPEGPRTWCMTRKPGA
# B2: 22115 (protein)
# chain: MALPVTALLLPLALLLHAARPQVQLVESGGGLVQPGGSLRLSCAASGFTFTNHAMSWVRQAPGKGLELVSSISGNGRTTYYADSVKGRFTISRDISKNTLDLQMNSLRAEDTAVYYCAKDGGETLVDSRGQGTLVTVSSLEDLKNVFPPEVAVFEPSKAEIAHTQKATLVCLATGFYPDHVELSWWVNGKEVHSGVCTDPQPLKEQPALNDSRYCLSSRLRVSATFWQNPRNHFRCQVQFYGLSENDEWTQDRAKPVTQIVSAEAWGRADCGITSASYHQGVLSATILYEILLGKATLYAVLVSALVLMAMVKRKDSRGRAKRSGSGATNFSLLKQAGDVEENPGPTSTMALPVTALLLPLALLLHAARPQVQLVESGGGLVQPGGSLRLSCAASGFTFTNHAMSWVRQAPGKGLELVSSISGNGRTTYYADSVKGRFTISRDISKNTLDLQMNSLRAEDTAVYYCAKDGGETLVDSRGQGTLVTVSSLESGGGGSFEQVQLQQPGAELVKPGASVKMSCKASGYAFSSYWINWMKQKPGQGLEWIGQIYPGDGDTNYNGKFKGRATLTADTSSSTAYMQLSSLTSEDSAVYFCARSITTVVGCAMDYWGQGTSVTVSSTRIQNPDPAVYQLRDSKSSDKSVCLFTDFDSQTNVSQSKDSDVYITDKCVLDMRSMDFKSNSAVAWSNKSDFACANAFNNSIIPEDTFFPSSDVPCDVKLVEKSFETDTNLNFQNLSVIGFRILLLKVAGFNLLMTLRLWSSRAKRSGSGVKQTLNFDLLKLAGDVESNPGPSRGHMTEYKPTVRLATRDDVPRAVRTLAAAFADYPATRHTVDPDRHIERVTELQELFLTRVGLDIGKVWVADDGAAVAVWTTPESVEAGAVFAEIGPRMAELSGSRLAAQQQMEGLLAPHRPKEPAWFLATVGVSPDHQGKGLGSAVVLPGVEAAERAGVPAFLETSAPRNLPFYERLGFTVTADVEVPEGPRTWCMTRKPGA
# B3: 22139 (protein)
# chain: MALPVTALLLPLALLLHAARPACEVQLLESGGGLIQPGGSLRLSCAASGFTFSSHAMTWVRQAPGKGLEWVSAISGSGDYTHYADSVKGRFTISRDNSKNTVYLQMNSLRAEDSAVYYCAKDEDGGSLLGHRGQGTLVTVSSGTGGGGSGGGGSGGGGSEFDIQMTQSPSSLSASVGDRVTITCKASDHINNWLAWYQQKPGQAPKLLIYGATTLETGVPSRFSGSGSGTDYTLTISSLQPEDFATYYCQQSWNTPWTFGQGTKLEIKRLEADVSPKPTIFLPSIAETKLQKAGTYLCLLEKFFPDVIKIHWQEKKSNTILGSQEGNTMKTNDTYMKFSWLTVPEKSLDKEHRCIVRHENNKNGVDQEIIFPPIKTDVITMDPKDNCSKDANDTLLLQLTNTSAYYMYLLLLLKSVVYFAIITCCLLRRTAFCCNGEKSRAKRSGSGATNFSLLKQAGDVEENPGPTSMDWIWRILFLVGAATGAHSGPQVQLQESGGGLAQAGGSLRLSCAASGRTFSMGWFRQAPGKEREFVAAITYSGGSPYYASSVRGRFTISRDNAKNTVYLQMNSLKPEDTAVYYCAANPTYGSDWNAENWGQGTQVTVSSGSGGGGSGGGGSGGGGSFEQVQLQQPGAELVKPGASVKMSCKASGYAFSSYWINWMKQKPGQGLEWIGQIYPGDGDTNYNGKFKGRATLTADTSSSTAYMQLSSLTSEDSAVYFCARSITTVVGCAMDYWGQGTSVTVSSTRPHTKPSVFVMKNGTNVACLVKEFYPKDIRINLVSSKKITEFDPAIVISPSGKYNAVKLGKYEDSNSVTCSVQHDNKTVHSTDFEVKTDSTDHVKPKETENTKQPSKSCHKPKAIVHTEKVNMMSLTVLGLRMLFAKTVAVNFLLTAKLFFLRAKRSGSGVKQTLNFDLLKLAGDVESNPGPSRGHMTEYKPTVRLATRDDVPRAVRTLAAAFADYPATRHTVDPDRHIERVTELQELFLTRVGLDIGKVWVADDGAAVAVWTTPESVEAGAVFAEIGPRMAELSGSRLAAQQQMEGLLAPHRPKEPAWFLATVGVSPDHQGKGLGSAVVLPGVEAAERAGVPAFLETSAPRNLPFYERLGFTVTADVEVPEGPRTWCMTRKPGA
# B4: 22141 (protein)
# chain: MALPVTALLLPLALLLHAARPACEVQLLESGGGLIQPGGSLRLSCAASGFTFSSHAMTWVRQAPGKGLEWVSAISGSGDYTHYADSVKGRFTISRDNSKNTVYLQMNSLRAEDSAVYYCAKDEDGGSLLGHRGQGTLVTVSSGTGGGGSGGGGSGGGGSEFDIQMTQSPSSLSASVGDRVTITCKASDHINNWLAWYQQKPGQAPKLLIYGATTLETGVPSRFSGSGSGTDYTLTISSLQPEDFATYYCQQSWNTPWTFGQGTKLEIKRLEGQPKANPTVTLFPPSSEELQANKATLVCLISDFYPGAVTVAWKADGSPVKAGVETTKPSKQSNNKYAASSYLSLTPEQWKSHRSYSCQVTHEGSTVEKTVAPTECSPIKTDVITMDPKDNCSKDANDTLLLQLTNTSAYYMYLLLLLKSVVYFAIITCCLLRRTAFCCNGEKSRAKRSGSGATNFSLLKQAGDVEENPGPTSATMDWIWRILFLVGAATGAHSGPQVQLQESGGGLAQAGGSLRLSCAASGRTFSMGWFRQAPGKEREFVAAITYSGGSPYYASSVRGRFTISRDNAKNTVYLQMNSLKPEDTAVYYCAANPTYGSDWNAENWGQGTQVTVSSGSGGGGSGGGGSGGGGSFEQVQLQQPGAELVKPGASVKMSCKASGYAFSSYWINWMKQKPGQGLEWIGQIYPGDGDTNYNGKFKGRATLTADTSSSTAYMQLSSLTSEDSAVYFCARSITTVVGCAMDYWGQGTSVTVSSTRASTKGPSVFPLAPSSKSTSGGTAALGCLVKDYFPEPVTVSWNSGALTSGVHTFPAVLQSSGLYSLSSVVTVPSSSLGTQTYICNVNHKPSNTKVDKRVEPKSCEVKTDSTDHVKPKETENTKQPSKSCHKPKAIVHTEKVNMMSLTVLGLRMLFAKTVAVNFLLTAKLFFLRAKRSGSGVKQTLNFDLLKLAGDVESNPGPSRAHMTEYKPTVRLATRDDVPRAVRTLAAAFADYPATRHTVDPDRHIERVTELQELFLTRVGLDIGKVWVADDGAAVAVWTTPESVEAGAVFAEIGPRMAELSGSRLAAQQQMEGLLAPHRPKEPAWFLATVGVSPDHQGKGLGSAVVLPGVEAAERAGVPAFLETSAPRNLPFYERLGFTVTADVEVPEGPRTWCMTRKPGA
# Test system: RS;411
# Test: JNG assay, co-culture with RS;411 cells
# Type: cell-based
# Conditions: co-culture with RS411
# Protocol: Cellular supernatant is collected and assayed for the induction of cytokines (e.g., IL2).
# JNG (Jurkat cells expressing EGFP under an NFAT promoter) were infected with lentiviral vectors encoding different single chain and multi-chain SARs by spinfection in the presence of 8 µg/ml of Polybrene® (Sigma, Catalog no. H9268). The Jurkat-NFAT-GFP cells are engineered in such a way that the IL-2 promoter, which carries NFAT binding sites, is cloned upstream of the GFP gene. These cells have been used to study signaling via TCR and CAR. The different SARs were stably expressed in Jurkat NFAT-GFP cells by lentiviral mediated gene transfer, followed by selection with puromycin or blasticidin. No drug selection was used in case the construct lacked an antibiotic resistance gene. The SAR-expressing Jurkat-NFAT-GFP cells were cocultured with the target cells at E:T ratio of approximately 1:2 for approximately 4 hours to 18 hours. When the interaction between SIRs and their target antigen results in activation of the NFAT pathway, GFP expression is induced. […] GFP expression was monitored by FACS analysis. The Jurkat-NFAT-GFP (parental) cells were used as control. The structure of different constructs can be determined based on their names. […] The sequence of the other constructs in the table can be similarly determined from their names and by referring to the different Tables of this disclosure that provide the names and SEQ ID NO of the different modules. Alternatively, the composition and modular architecture of the different SAR constructs can be determined from their sequences by bioinformatics tools, including using nucleic acid and amino acids homology searches. A SAR is considered positive in the assay in case the SAR expressing Jurkat-NFAT-GFP cells show greater % GFP positive cells when cultured with the target cell line as compared to parental Jurkat-NFAT-GFP cells. […] In general, the number +/-, +, 2+, 3+, 4+, 5+ refer to approximately 5%, 10%, 20%, 30%, 40% and 50% GFP positive cells. The % of GFP induction in the above assay is dependent not only the relative strength of the SAR but also, among other factors, on the relative level of expression of the SAR in the JNG cells and the relative level of expression of the target antigen in the target cell line. To control for the difference in gene transduction efficiency of the different SAR constructs, the experiment was conducted with JNG cells transduced with SAR constructs co-expressing a drug resistance gene (e.g., puromycin or PAC) followed by drug selection to generate a stable population of SAR-expressing cells. It is to be noted that the drug resistance gene (e.g., PAC) in the SAR constructs is optional and in vivo studies were conducted with SAR constructs lacking the PAC gene.
row,Molecule,NFAT-GFP ASSAY: RS411
1,B1,"+ (refer to approximately 5%, 10%, 20%, 30%, 40% and 50% GFP positive cells)"
2,B2,"2+ (refer to approximately 5%, 10%, 20%, 30%, 40% and 50% GFP positive cells)"
3,B3,"2+ (refer to approximately 5%, 10%, 20%, 30%, 40% and 50% GFP positive cells)"
4,B4,"4+ (refer to approximately 5%, 10%, 20%, 30%, 40% and 50% GFP positive cells)"

# Test system: RAJI cells
# Test: JNG assay, co-culture with RAJI cells
# Type: cell-based
# Conditions: JNG cells expressing construct, co-culture with Raji
# Method in brief: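 Jurkat NFAT-GFP (JNG) cells stably transduced with SARs by lentivirus, with drug selection where the construct carried a resistance gene, then co-cultured with target cells at E:T ~1:2 for ~4–18 h. % GFP-positive cells measured by FACS against parental JNG; +/- to 5+ correspond to ~5–50% GFP-positive.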
row,Molecule,NFAT-GFP ASSAY: Raji
1,B1,"5+ (refer to approximately 5%, 10%, 20%, 30%, 40% and 50% GFP positive cells)"
2,B3,"2+ (refer to approximately 5%, 10%, 20%, 30%, 40% and 50% GFP positive cells)"
3,B4,"4+ (refer to approximately 5%, 10%, 20%, 30%, 40% and 50% GFP positive cells)"
